Reference: US20250277050A1 (published 2025)
Positions count from the first letter of the chain named.

T1: human CD30 expressed on the cell surface (human, UniProt P28908 19-595)
T1 chain: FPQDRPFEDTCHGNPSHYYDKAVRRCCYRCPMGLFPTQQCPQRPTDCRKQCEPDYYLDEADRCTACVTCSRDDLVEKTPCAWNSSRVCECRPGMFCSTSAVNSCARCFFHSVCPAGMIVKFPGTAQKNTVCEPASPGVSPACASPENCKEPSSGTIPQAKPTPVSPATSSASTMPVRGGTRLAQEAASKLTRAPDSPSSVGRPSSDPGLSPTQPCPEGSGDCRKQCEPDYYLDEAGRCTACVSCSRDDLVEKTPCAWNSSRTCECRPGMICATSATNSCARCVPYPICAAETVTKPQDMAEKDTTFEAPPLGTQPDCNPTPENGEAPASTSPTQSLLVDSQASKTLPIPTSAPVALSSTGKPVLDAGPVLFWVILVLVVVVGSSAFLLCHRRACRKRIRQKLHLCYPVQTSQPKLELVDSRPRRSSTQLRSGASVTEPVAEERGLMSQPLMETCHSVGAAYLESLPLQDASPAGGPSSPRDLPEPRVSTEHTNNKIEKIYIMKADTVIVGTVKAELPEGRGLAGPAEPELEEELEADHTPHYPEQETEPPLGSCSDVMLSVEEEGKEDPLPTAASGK

B1: 10C2 (antibody, V domains shown)
VH: QVQLEQSGPVLVKPGASVKMSCKASGYTFTDYYMNWVKQSHGKSLEWIGVINPYNGGTSYNQKFKGKATLTVDKSSSTACMELNCLTSEDSAVYYCTLGAYWGQGTSVTVSS
VL: not shown
B2: 13H1 (antibody, V domains shown)
VH: QVQLQQSGTELVKPGASVKLSCKASGHTFTSYWMHWVKQRPGQGLEWIGNINPSNGGTNYNEKFKSKATLTVDKSSSTAYMQLSSLTSEDSAVYYCARRGYYGSSSYWSFDVWGTGTTVTVSS
VL: DIVMTQTPKSMSMSVGERVTLSCKASENVGTYVSWYQQKPEQSPKVLIYGASNRFTGVPDRFTGSGSATDFTLTISSVQTEDLADYHCGQSYSYPLTFGAGTKLELK
B3: 8D10 (antibody, V domains shown)
VH: QVQLQESGTELVKPGASVKLSCKASGYTFTSYWMHWMKQRPGQGLEWIGNINPSNGGTNYNEKFKNKATLTVDKSSSTAYMQLSSLTSEDSAVYYCARRDYYYGSSYGFDVWGTGTTVTVSS
VL: DIVMTQSPASQSASLGESVTITCLASQTIGTWLAWYQQKPGKSPQFLIYAATSLADGVPSRFSGSGSGTKFSFKISSLQAEDFVSYYCQQLYSTPFTFGGGTKLEIK
B4: 12B1 (antibody, V domains shown)
VH: EVKLEESGTELVKPGASVKLSCKASGYTFTSYWMHWVKQRPGQGLEWIGNINPTNGGTNYNEKFKSKATLTVDKSSRTAYMQLSSLTSGDSAVYYCARRDFITTSGFAYWGQGTLVTVSA
VL: DIVMTQTTASLSTSVGETVTITCRASGNLHSYLTWYQQKQGKSPQLLVYNAKTLADGVPSRFSGSGSGTQYSLKIDSLQPEDFGSYYCQHFWTTPFTFGSGTKLEIK
B5: 15B8 (antibody, V domains shown)
VH: QVQLEQSGTELVKPGASVKLSCKASGYTFTSYWMHWVKQRPGQGLEWIGNINPSNGGTNYNEKFKSKATLTVDKSSSTAYMQLSSLTSEDSAIYYCARRNNYYASSPFAYWGQGTLVSVSA
VL: B4 VL with T8P, T13A, L29I, S31N, T34A, D76N, T93S

Target: T1, human CD30 expressed on the cell surface
Assay: SPR; CD30 immobilized on CM5 chip, antibody as analyte

| Kd | Binder |
| --- | --- |
| 0.607 nM | B1 |
| 0.149 nM | B2 |
| 0.0592 nM | B3 |
| 0.199 nM | B4 |
| 0.978 nM | B5 |

Target: T1, human CD30 expressed on the cell surface
Assay: as above
Remark: another data set of the same source

| Ka | Binder |
| --- | --- |
| 1.65e+09 M⁻¹ | B1 |
| 6.7e+09 M⁻¹ | B2 |
| 1.69e+10 M⁻¹ | B3 |
| 5.02e+09 M⁻¹ | B4 |
| 1.02e+09 M⁻¹ | B5 |

Target: T1, human CD30 expressed on the cell surface
Assay: SPR; antibody immobilized on Protein G chip, CD30 as analyte

| Kd | Binder |
| --- | --- |
| 1.76 nM | B1 |
| 1.14 nM | B3 |
